Measured values as given in article PMC4931022, “Arginine demethylation is catalysed by a subset of JmjC histone lysine demethylases” (Nature Communications, 2016).

Experiments:
KDM5C(1-765) (human) = target: T1, KDM5C(1-765) (human) (UniProt P41229)
T1 sequence: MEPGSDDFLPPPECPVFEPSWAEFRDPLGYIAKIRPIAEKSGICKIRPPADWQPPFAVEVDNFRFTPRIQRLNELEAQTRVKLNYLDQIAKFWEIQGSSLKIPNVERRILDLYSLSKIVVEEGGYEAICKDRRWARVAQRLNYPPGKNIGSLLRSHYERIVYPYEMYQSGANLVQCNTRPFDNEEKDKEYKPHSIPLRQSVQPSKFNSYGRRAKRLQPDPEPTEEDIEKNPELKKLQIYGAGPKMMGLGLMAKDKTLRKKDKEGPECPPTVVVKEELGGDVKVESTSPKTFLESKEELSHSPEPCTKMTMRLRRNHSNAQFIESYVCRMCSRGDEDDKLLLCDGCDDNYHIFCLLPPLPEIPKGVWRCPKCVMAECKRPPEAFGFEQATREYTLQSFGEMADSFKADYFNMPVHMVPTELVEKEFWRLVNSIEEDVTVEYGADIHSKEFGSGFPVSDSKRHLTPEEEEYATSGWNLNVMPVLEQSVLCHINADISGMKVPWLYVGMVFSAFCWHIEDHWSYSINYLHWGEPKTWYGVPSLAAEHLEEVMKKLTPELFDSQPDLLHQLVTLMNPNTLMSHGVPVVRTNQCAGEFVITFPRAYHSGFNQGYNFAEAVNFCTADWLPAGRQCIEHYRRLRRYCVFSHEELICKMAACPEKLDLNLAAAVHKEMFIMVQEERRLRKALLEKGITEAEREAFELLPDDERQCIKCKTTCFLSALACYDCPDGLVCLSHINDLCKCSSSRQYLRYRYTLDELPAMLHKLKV

KDM4E(1-337) (human) = target: T2, KDM4E(1-337) (human) (UniProt B2RXH2)
T2 sequence: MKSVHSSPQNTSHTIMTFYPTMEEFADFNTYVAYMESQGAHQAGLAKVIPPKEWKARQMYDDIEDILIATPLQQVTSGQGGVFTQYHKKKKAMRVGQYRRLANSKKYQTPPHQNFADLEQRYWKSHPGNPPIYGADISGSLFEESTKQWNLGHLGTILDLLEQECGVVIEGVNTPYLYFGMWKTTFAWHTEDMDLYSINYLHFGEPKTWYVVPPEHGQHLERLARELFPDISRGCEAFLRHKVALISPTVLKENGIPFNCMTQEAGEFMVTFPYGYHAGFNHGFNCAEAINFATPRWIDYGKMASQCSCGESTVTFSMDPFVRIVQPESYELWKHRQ

KDM3A(515-1,317) (human) = target: T3, KDM3A(515-1,317) (human) (UniProt Q9Y4C1)
T3 sequence: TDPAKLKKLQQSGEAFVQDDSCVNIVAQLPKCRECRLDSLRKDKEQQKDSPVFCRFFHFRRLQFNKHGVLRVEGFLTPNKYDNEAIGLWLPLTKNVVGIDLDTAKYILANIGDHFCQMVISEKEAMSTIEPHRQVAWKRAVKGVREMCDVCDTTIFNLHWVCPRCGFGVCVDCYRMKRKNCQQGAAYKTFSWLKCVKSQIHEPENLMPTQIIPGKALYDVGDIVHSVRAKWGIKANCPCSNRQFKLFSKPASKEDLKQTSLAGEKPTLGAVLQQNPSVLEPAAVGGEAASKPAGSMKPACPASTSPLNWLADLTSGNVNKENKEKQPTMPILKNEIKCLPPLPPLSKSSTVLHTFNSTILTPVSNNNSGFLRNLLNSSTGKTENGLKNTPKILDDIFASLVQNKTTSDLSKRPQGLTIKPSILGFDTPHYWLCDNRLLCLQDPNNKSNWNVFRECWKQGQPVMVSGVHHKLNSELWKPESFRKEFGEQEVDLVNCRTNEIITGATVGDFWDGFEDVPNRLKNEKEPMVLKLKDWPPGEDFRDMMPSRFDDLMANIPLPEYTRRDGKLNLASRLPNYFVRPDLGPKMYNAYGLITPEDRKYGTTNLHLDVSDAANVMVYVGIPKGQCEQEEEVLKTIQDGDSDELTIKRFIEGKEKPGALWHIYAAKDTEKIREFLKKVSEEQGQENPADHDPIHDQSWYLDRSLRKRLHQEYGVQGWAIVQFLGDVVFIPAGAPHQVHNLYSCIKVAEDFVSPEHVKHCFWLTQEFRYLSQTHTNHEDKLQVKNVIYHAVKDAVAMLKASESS

[1] = target: KDM6B(1,141-1,590) (human) (UniProt O15054)
Chain of KDM6B(1,141-1,590) (human) (O15054 1141-1590): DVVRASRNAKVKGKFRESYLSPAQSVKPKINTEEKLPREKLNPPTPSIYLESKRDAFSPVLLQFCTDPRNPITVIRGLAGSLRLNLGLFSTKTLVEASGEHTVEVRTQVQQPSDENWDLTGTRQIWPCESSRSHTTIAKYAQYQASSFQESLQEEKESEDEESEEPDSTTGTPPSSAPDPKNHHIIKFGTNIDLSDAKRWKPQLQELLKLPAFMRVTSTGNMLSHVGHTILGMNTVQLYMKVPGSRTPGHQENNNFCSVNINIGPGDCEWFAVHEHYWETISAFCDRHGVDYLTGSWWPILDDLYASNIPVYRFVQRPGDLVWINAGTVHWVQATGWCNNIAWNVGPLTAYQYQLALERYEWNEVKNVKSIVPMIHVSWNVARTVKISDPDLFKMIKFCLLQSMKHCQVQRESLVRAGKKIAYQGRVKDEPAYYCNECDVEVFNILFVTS

apparent KM, formaldehyde dehydrogenase-coupled demethylation assay (KDM5C(1-765) (human)) [µM] | apparent KM, formaldehyde dehydrogenase-coupled demethylation assay (KDM4E(1-337) (human)) [µM] | apparent KM, formaldehyde dehydrogenase-coupled demethylation assay (KDM3A(515-1,317) (human)) [µM] | Substance | other results
29 | – | – | H3(1-15)K4Rme2a (from UniProt P68431 2-16) (peptide) | –
21.1 | – | – | H3(1-15)K4Rme2s (from UniProt P68431 2-16) (peptide) | –
7.6 | – | – | H3(1-15)K4me3 (from UniProt P68431 2-16) (peptide) | –
– | 66 | 11.6 | H3(1-15)K9Rme2a (from UniProt P68431 2-16) (peptide) | –
– | 101 | 23.7 | H3(1-15)K9Rme2s (from UniProt P68431 2-16) (peptide) | –
– | 169 | 12.1 | H3(1-15)K9Rme (from UniProt P68431 2-16) (peptide) | –
– | – | 44.5 | H3(1-15)K9me2 (from UniProt P68431 2-16) (peptide) | –
– | 17.8 | – | H3(1-15)K9me3 (from UniProt P68431 2-16) (peptide) | –
– | – | – | H3(14-34)K27Rme2a (from UniProt P68431 15-35) (peptide) | apparent KM, formaldehyde dehydrogenase-coupled demethylation assay [1]: 676 µM
– | – | – | H3(14-34)K27me3 (from UniProt P68431 15-35) (peptide) | apparent KM, formaldehyde dehydrogenase-coupled demethylation assay [1]: 6.7 µM
